Assay [1] has as its target T1, TLR4 (Homo sapiens, UniProt O00206).
T1 construct: expressed in transfected cells; host or cells: HEK293
Description: NF-κB luciferase reporter in HEK293 cells expressing TLR4, LPS stimulation. It is filed as cell-based. The settings on record: for LPS-dependent NF-κB activation conferred by soluble protein: culture supernatants added to HEK293 cells stably transfected with TLR4 and NF-κB luciferase reporter; for LPS-mediated NF-κB activation on transient expression: plasmid transfected with CD14 into HEK293 TLR4/NF-κB reporter cells, LPS 250 ng/ml 6 h. The procedure:
(A) HEK-293 cells stably transfected with TLR4 and a NF-κB reporter gene were treated with supernatants containing either MD-2 or MD-2s as described in the examples herein. Cells were left untreated or stimulated with LPS for 24 h. Mean relative stimulation of luciferase activity±S.D. for a representative experiment, each performed in triplicate, is shown. (B) HEK-293 cells stably transfected with TLR4 and a NF-κB reporter gene were transiently transfected with plasmids encoding for either MD-2, MD-2s or CD14 as shown. 24 h later, cells were left untreated or stimulated with LPS (250 ng/ml) for 6 h. Mean relative stimulation of luciferase activity±SD for a representative experiment, each performed in triplicate, is shown. (C) and (D) Supernatants were also collected and measured for IL-8 secretion.
(A) HEK293 cells were transiently transfected with plasmids encoding TLR4 and a NF-κB reporter gene in combination with MD-2 and MD-2s as indicated. 24 h later, cells were left untreated or incubated with LPS (250 ng/ml) for 5 h. Mean relative stimulation of luciferase activity±S.D. for a representative experiment from three separate experiments, each performed in triplicate, is shown. (B) HEK-293 cells stably transfected with TLR4 and a NF-κB reporter gene were treated with supernatants containing either MD-2 and MD-2s as depicted and left untreated or incubated with LPS for 24 h. Mean relative stimulation of luciferase activity±S.D. for a representative experiment from three separate experiments, each performed in triplicate, is shown.
HEK293 cells were transiently transfected with the expression vectors noted in combination with constructs encoding the NF-κB- and IL-8-luciferase reporter gene, and either the β-galactosidase gene or the phRL-TK report gene to normalize for transfection efficiency. In all cases, total DNA concentration was kept constant by supplementation with empty vector control. Following overnight incubation, cells were stimulated for 6 hours with 50 ng/ml LPS and then lysed, and luciferase activity was measured as described previously (Ohta et al. (2004) BIOCHEM BIOPHYS RES COMMUN 323, 1103-1108). Data are shown as mean±SD of three or more independent experiments and are reported as a percentage of LPS-stimulated NF-κB and IL-8 promoter activity, or relative luciferase activity.
The requirement for MD-2s in LPS mediated NF-κB activation was assessed. It has been shown that the soluble form of wild-type MD-2 confers LPS responsiveness to cells expressing TLR4; therefore, it was investigated if soluble MD-2s was also bioactive. Culture supernatants were obtained from HEK293 cells transiently expressing control vector, MD-2, or MD-2s, and incubated with HEK293 cells stably transfected with TLR4 and an NF-κB-dependent luciferase reporter gene.
MD-2s was tested to see if it needed to be transiently expressed in TLR4 reporter cells in order to mediate NF-κB activation following LPS stimulation. HEK293 cells stably transfected with TLR4 and an NF-κB-dependent luciferase reporter gene were transiently transfected with plasmids encoding CD14 in combination with either MD-2 or MD-2s, and subsequently treated with LPS.
HEK293 cells were transiently transfected with plasmids encoding CD14, TLR4, and wild-type MD-2 in conjunction with a plasmid encoding the NF-κB-dependent luciferase reporter gene in the presence or absence of a plasmid encoding MD-2s. […] Furthermore, we assessed the inhibitory role of soluble MD-2s following LPS stimulation. HEK293 cells stably transfected with TLR4 and an NF-κB-dependent luciferase reporter gene were incubated with supernatants obtained from HEK293 cells transiently expressing a constant amount of MD-2 with increasing concentrations of MD-2s.
In general terms: Reporter assays use an easily measured gene product as a stand-in for the process of interest.

For assay [2], the system named is TLR4-expressing cells. Description: Surface staining of TLR4-mCitrine HEK293T cells (flow cytometry, confocal imaging). The class given is cell-based, human. Particulars: myc-tagged protein transfected into TLR4-mCitrine HEK293T cells. From the text: HEK293T cells stably expressing fluorescent TLR4-mCitrine were transiently transfected with myc-tagged wild-type MD-2 or MD-2s and surface-stained with anti-myc antibody. (a) Cells analyzed by flow cytometry were gated to select single cells and the TLR4-positive population. Anti-myc staining of TLR4-mCitrine positive cells expressing MD-2 (top panel, thick line) or MD-2s (middle panel, thick line) and untransfected cells (thin line) is shown. […] Co-localization of TLR4 and MD-2 isoforms on the cell surface is visualized in yellow.
HEK293T cells were retrovirally transduced to generate a cell line stably expressing TLR4-mCitrine. TLR4-mCitrine cells in 12-well dishes were transfected with 300 ng of plasmid encoding myc-tagged MD2 or MD2S using GeneJuice lipofection reagent (Novagen) and cultured overnight. Cells were dislodged by scraping, washed once with cold PBS and incubated with a 1:50 dilution of anti-myc Alexa 647-conjugated antibody (AbD Serotec) at 4° C. for 30 minutes. Cells were washed four times with PBS for and fluorescence was assessed with an LSR II flow cytometer (BD Biosciences) running FACS Diva software (BD Biosciences). Data was processed using FlowJo software v8.6.3 (Tree Star).
TLR4-mCitrine cells were cultured on glass-bottom confocal dishes (MatTek) coated with collagen. […]
(In flow cytometry, cells or beads pass a laser one at a time.)

Assay [3] can be described thus: Biotin-LPS binding, immunoprecipitation from culture supernatants. Particulars: culture supernatants incubated with biotin-LPS, anti-Myc immunoprecipitation. The procedure:
(A) HEK293 cells were transiently transfected with plasmids encoding for Flag-tagged MD-2 (lanes 1-4) in combination with either a Myc-tagged MD-2 (lanes 1 and 3) or a Myc-tagged MD-2s (lanes 2 and 4) expressing plasmid. Co-immunoprecipitation experiments were then performed using an anti-Flag antibody (lanes 3-4) or an IgG isotype control antibody (lane 1-2). Samples were fractionated by SDS-PAGE and immunoblotting with an anti-Myc antibody was performed. (B) Structural analysis of MD-2. Structural features representing the TLR4 binding sites (red); the ligand contacts (dark blue); the ligand binding pocket (light blue) and the TLR4 secondary contacts (pink) are illustrated. The residues deleted in MD-2s (yellow) are also shown. (C) HEK293 cells were transiently transfected with plasmids encoding for Myc-tagged MD-2 (lanes 3 and 4) or a Myc-tagged MD-2s (lanes 5 and 6) expressing plasmid and treated with LPS-biotin as indicated. Co-immunoprecipitation experiments were then performed using an anti-Myc antibody. Samples were fractionated by SDS-PAGE and immunoblotting with an anti-biotin (upper panel) and anti-Myc antibody (lower panel) were performed.
To address this possibility, HEK293 cells were transiently transfected with plasmids encoding either MD-2 or MD-2s. Culture supernatants were then incubated with biotin-LPS and Myc-tagged proteins were immunoprecipitated.

T1 sequence (O00206 24-839): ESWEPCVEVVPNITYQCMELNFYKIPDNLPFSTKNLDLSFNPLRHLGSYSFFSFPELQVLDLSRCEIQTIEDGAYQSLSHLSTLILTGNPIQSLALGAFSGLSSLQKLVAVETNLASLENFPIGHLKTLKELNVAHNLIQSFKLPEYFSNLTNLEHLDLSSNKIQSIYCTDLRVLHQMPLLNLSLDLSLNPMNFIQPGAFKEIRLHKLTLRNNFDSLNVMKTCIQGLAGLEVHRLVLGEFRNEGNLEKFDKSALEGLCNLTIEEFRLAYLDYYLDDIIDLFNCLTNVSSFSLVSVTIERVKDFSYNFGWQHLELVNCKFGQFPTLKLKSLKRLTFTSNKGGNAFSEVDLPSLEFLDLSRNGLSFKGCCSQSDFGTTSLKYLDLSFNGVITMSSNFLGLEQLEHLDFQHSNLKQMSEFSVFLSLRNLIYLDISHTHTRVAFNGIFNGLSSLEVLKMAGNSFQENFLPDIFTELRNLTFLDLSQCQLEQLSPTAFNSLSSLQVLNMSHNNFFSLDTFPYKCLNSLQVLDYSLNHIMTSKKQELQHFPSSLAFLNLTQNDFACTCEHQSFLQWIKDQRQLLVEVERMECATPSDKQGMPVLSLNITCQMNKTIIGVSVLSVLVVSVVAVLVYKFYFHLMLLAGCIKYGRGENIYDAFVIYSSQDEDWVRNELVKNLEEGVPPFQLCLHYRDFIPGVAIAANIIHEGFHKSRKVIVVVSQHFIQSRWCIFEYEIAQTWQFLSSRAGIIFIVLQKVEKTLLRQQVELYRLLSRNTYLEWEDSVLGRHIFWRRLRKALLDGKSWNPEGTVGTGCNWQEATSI

For “MD-2: full-length human wild-type MD-2, co-receptor of TLR4 [reference compound]”, the “LPS-dependent NF-κB activation conferred by soluble protein” value in assay [1] (LPS 24 h) is on record as “strongly activated NF-κB”. Besides, the “LPS-mediated NF-κB activation on transient expression” value in assay [1] was “activated NF-κB”. The “Binding to the surface of TLR4-expressing cells” value in assay [2] is given as “bind to the surface of TLR4-expressing cells”. In addition, in assay [3], the “Binding of secreted protein to LPS” value is on record as “bound readily to LPS”.

B1: MD-2s: alternatively spliced isoform of human MD-2 lacking exon 2, with D38G substitution; expressed and secreted protein sequences in Table 1 (protein, listed as Homo sapiens)
chain 1: MLPFLFFSTLFSSIFTEAQKQYWVCNSSDASISYTYCGRDLKQLYFNLYITVNTMNLPKRKEVICRGSDDDYSFCRALKGETVNTTISFSFKGIKFSKGKYKCVVEAISGSPEEMLFCLEFVILHQPNSN
chain 2: EAQKQYWVCNSSDASISYTYCGRDLKQLYFNLYITVNTMNLPKRKEVICRGSDDDYSFCRALKGETVNTTISFSFKGIKFSKGKYKCVVEAISGSPEEMLFCLEFVILHQPNSN
Take B1: in assay [1] (MD-2s plasmid co-transfected with CD14, TLR4, wild-type MD-2 and reporter, LPS 250 ng/ml 5 h), the “Effect on LPS-induced NF-κB activation mediated by MD-2/TLR4” value was “significantly inhibited”. For the same molecule, the “LPS-dependent NF-κB activation conferred by soluble protein” value in assay [1] (LPS 24 h) is on record as “could not confer LPS responsiveness”. Also, the “LPS-mediated NF-κB activation on transient expression” value in assay [1] is given as “unable to induce LPS-mediated NF-κB activation”. For the same molecule, in assay [1] (supernatants with constant MD-2 and increasing MD-2s on TLR4/NF-κB reporter cells, LPS 24 h), the “Effect of soluble form on LPS-induced NF-κB activation” value is reported as “inhibits NF-κB activation”. In assay [2], the “Binding to the surface of TLR4-expressing cells” value was “bind to the surface of TLR4-expressing cells”. The “Binding of secreted protein to LPS” value in assay [3] is “interaction between secreted MD-2s and LPS was also detected”.
